Measured values reported in IntAct's records for PubMed 20802536.

B1: Frizzled-4 (Homo sapiens), Q9ULV1 (parent)
chain: MAWRGAGPSVPGAPGGVGLSLGLLLQLLLLLGPARGFGDEEERRCDPIRISMCQNLGYNVTKMPNLVGHELQTDAELQLTTFTPLIQYGCSSQLQFFLCSVYVPMCTEKINIPIGPCGGMCLSVKRRCEPVLKEFGFAWPESLNCSKFPPQNDHNHMCMEGPGDEEVPLPHKTPIQPGEECHSVGTNSDQYIWVKRSLNCVLKCGYDAGLYSRSAKEFTDIWMAVWASLCFISTAFTVLTFLIDSSRFSYPERPIIFLSMCYNIYSIAYIVRLTVGRERISCDFEEAAEPVLIQEGLKNTGCAIIFLLMYFFGMASSIWWVILTLTWFLAAGLKWGHEAIEMHSSYFHIAAWAIPAVKTIVILIMRLVDADELTGLCYVGNQNLDALTGFVVAPLFTYLVIGTLFIAAGLVALFKIRSNLQKDGTKTDKLERLMVKIGVFSVLYTVPATCVIACYFYEISNWALFRYSADDSNMAVEMLKIFMSLLVGITSGMWIWSAKTLHTWQKCSNRLVNSGKVKREKRGNGWVKPGKGSETVV
partner: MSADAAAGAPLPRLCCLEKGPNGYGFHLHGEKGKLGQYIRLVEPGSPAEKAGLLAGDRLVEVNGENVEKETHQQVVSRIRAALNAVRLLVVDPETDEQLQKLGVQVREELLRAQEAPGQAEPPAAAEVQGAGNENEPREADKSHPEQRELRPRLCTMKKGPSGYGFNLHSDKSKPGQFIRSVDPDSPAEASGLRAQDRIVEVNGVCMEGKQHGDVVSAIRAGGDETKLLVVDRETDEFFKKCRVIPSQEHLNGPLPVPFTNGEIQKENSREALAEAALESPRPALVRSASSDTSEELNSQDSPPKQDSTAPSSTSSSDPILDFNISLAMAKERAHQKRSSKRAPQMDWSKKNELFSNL
B2: Frizzled-4 (Homo sapiens), Q9ULV1 (parent)
chain: B1 chain
partner: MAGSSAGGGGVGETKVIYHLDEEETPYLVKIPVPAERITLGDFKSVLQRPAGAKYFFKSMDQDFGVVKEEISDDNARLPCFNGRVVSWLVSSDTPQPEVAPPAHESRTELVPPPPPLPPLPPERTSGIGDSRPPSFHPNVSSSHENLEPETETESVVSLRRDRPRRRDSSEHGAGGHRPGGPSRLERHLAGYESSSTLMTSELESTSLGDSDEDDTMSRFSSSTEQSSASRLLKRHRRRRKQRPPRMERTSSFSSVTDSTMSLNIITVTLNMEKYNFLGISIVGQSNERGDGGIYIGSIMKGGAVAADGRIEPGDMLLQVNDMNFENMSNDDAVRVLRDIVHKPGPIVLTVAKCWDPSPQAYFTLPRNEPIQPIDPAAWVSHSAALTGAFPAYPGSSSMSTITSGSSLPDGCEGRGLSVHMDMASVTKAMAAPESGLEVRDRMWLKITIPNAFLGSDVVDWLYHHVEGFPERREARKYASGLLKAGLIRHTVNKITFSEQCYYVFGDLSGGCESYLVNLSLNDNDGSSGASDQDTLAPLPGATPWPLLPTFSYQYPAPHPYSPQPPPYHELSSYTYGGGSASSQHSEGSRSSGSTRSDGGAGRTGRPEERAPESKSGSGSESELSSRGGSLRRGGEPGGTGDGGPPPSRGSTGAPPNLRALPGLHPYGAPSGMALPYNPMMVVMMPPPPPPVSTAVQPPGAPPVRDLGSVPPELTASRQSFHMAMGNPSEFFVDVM

Variants of: B1
Conditions: with nhrf1_human NHERF1, O14745
In the case of MAWRGAGPSVPGAPGGVGLSLGLLLQLLLLLGPARGFGDEEERRCDPIRISMCQNLGYNVTKMPNLVGHELQTDAELQLTTFTPLIQYGCSSQLQFFLCSVYVPMCTEKINIPIGPCGGMCLSVKRRCEPVLKEFGFAWPESLNCSKFPPQNDHNHMCMEGPGDEEVPLPHKTPIQPGEECHSVGTNSDQYIWVKRSLNCVLKCGYDAGLYSRSAKEFTDIWMAVWASLCFISTAFTVLTFLIDSSRFSYPERPIIFLSMCYNIYSIAYIVRLTVGRERISCDFEEAAEPVLIQEGLKNTGCAIIFLLMYFFGMASSIWWVILTLTWFLAAGLKWGHEAIEMHSSYFHIAAWAIPAVKTIVILIMRLVDADELTGLCYVGNQNLDALTGFVVAPLFTYLVIGTLFIAAGLVALFKIRSNLQKDGTKTDKLERLMVKIGVFSVLYTVPATCVIACYFYEISNWALFRYSADDSNMAVEMLKIFMSLLVGITSGMWIWSAKTLHTWQKCSNRLVNSGKVKREKRGNGWVKPGKGSETVA [V537A], the “effect of a mutation on the interaction” value is reported as “decreasing interaction”.

Variants of: B2
Conditions: with dvl2_mouse Dvl2, Q60838
With MAWRGAGPSVPGAPGGVGLSLGLLLQLLLLLGPARGFGDEEERRCDPIRISMCQNLGYNVTKMPNLVGHELQTDAELQLTTFTPLIQYGCSSQLQFFLCSVYVPMCTEKINIPIGPCGGMCLSVKRRCEPVLKEFGFAWPESLNCSKFPPQNDHNHMCMEGPGDEEVPLPHKTPIQPGEECHSVGTNSDQYIWVKRSLNCVLKCGYDAGLYSRSAKEFTDIWMAVWASLCFISTAFTVLTFLIDSSRFSYPERPIIFLSMCYNIYSIAYIVRLTVGRERISCDFEEAAEPVLIQEGLKNTGCAIIFLLMYFFGMASSIWWVILTLTWFLAAGLKWGHEAIEMHSSYFHIAAWAIPAVKTIVILIMRLVDADELTGLCYVGNQNLDALTGFVVAPLFTYLVIGTLFIAAGLVALFKIRSNLQKDGTKTDKLERLMVKIGVFSVLYTVPATCVIACYFYEISNWALFRYSADDSNMAVEMLKIFMSLLVGITSGMWIWSAKTLHTWQKCSNRLVNSGKVKREKRGNGWVKPGKGSETVA [V537A] the “effect of a mutation on the interaction” value was “decreasing interaction”.
